Patent publication US10801046B2, “Methods and materials for biosynthesizing multifunctional, multivariate molecules via carbon chain modification” (INVISTA NORTH AMERICA S.A.R.L., priority 2016, dated 2020)

What was measured:
[1] = tested on: heptanedioyl-ACP methyl ester; format: cell-based, Escherichia coli; settings: for impact on monomethyl heptanedioate production: 146 thioesterases screened; for activity toward heptanedioyl-ACP methyl ester in vivo: top 150 hits screened in vivo; for monomethyl heptanedioate production: bioH deletion strain, TB supplemented with 1 mM IPTG and 2 mM L-rhamnose
[2] = In vivo aminotransferase activity screening, 7-aminoheptanoate by LC-MS; format: cell-based, Escherichia coli; settings: in vivo conversion of 7-oxoheptanoate to 7-aminoheptanoate, 120 aminotransferases screened
Method: A 165-member aminotransferase library from Twist on IPTG-inducible T7- pUC expression vectors was co-transformed into T7 Express lysY/Iq with a constitutive expression pJ23150-derived plasmid bearing the phosphopantetheinyl transferase sfp from Bacillus subtilis, CAR_Srot from Invista and BioC from Serratia marcescens (UniprotKB Accession No. P36571 (SEQ ID NO: 165)). The resulting strains were incubated in 0.5 ml of rich media (terrific broth or LB containing 8% glycerol) supplemented with 0.4 mM IPTG and received 1 g/L monomethyl heptanedioate, 1 g/L heptanedioate, or no organic acid addition, depending on the experiment. Following incubation overnight at 37° C. in a shaking incubator, cells were pelleted and the supernatants were analyzed using LC-MS for 7-aminoheptanoate or monomethyl 7-aminoheptanoate. A Vibrio fluvialis aminotransferase (UniProtKB Accession No. F2XBU9 (SEQ ID NO: 128)) was used as a positive control.

Row | Molecule | activity toward heptanedioyl-ACP methyl ester in vivo [1] | also measured
1 | SEQ ID NO: 102: Peptoniphilus harei ACS-146-V-Sch2b thioesterase (protein, Peptoniphilus harei ACS-146-V-Sch2b, Peptoniphilus harei ACS-146-V-Sch2b thioesterase) MKIFCKEYEVMNFLSSDGDLKLNHLVSYLIETSNYQSIDLGLSNEKLLDMGYTWMIYKWKIKINRYPRSYEKIKIKTWASGFKNINAFREFEVYCQGEKIIEASAIFLLIDVEKRKAIKIPEVLAEIYGNNGNRIFKSIERVNEPSELEIANRFSYKILRRDLDFNNHVNNSVYLELIYEAVTDEYTHVKFKDINVNYINELKLGDEIVIDFYREEDRFYFFFKSKDQSQIYARICGVSETPIS | showed activity toward heptanedioyl-ACP methyl ester | impact on monomethyl heptanedioate production [1]: promising
2 | SEQ ID NO: 81: Citrobacter rodentium thioesterase (protein, Citrobacter rodentium (strain ICC168), Citrobacter rodentium thioesterase) MVNFNNVFRWHLPFLFLILFTCRSVAADTLLILGDSLSAGYRMSASAAWPALLNDKWHSKTTIVNASISGDTSGQALARLPALLKQHQPRWVLVELGGNDGLRGFSPAQTEQTLRTILQNVKAASAEPLLMQIRLPANYGRRYNETFSAIYPKLASEFDIPLLPFFMEEVYLKPQWMQDDGIHPNRDAQPFIADWMAKQLSPLVKYES | showed activity toward heptanedioyl-ACP methyl ester | –
3 | SEQ ID NO: 79: Thermincola potens thioesterase (protein, Thermincola potens (strain JR)) MEPYQTSIPVHYYEINNHRQASPVAILNYLEEAAIRHSESVGWGIEKLLANSRGWLLTRWSLHMQKYPQWGETVNIETWPYKFERFYATREFRISDREGRVLGAATTLWVFFDLRRKRPVRIPPDIYDAYGTGAERMVADEFADLPVVDEPEIKLEFRVRLSDIDTNDHVNNTKYVEWLLETVPLSVHNGFLLSSVEIAYKKETSYGSTVLCGIKETEAGERQTTFLHIILDKDSGTELARARTVWQKRSKI | showed activity toward heptanedioyl-ACP methyl ester | –
4 | SEQ ID NO: 68: Agathobacter rectalis DSM 17629 thioesterase (protein, Eubacterium rectale DSM 17629, Agathobacter rectalis DSM 17629 thioesterase) MAFSFDSRIRYSEVDSSCRLSLTGLTNYFQDCSVFHSQSHDVGIRFLADNHIAWVLSSWQICINRLPLLNEQVKISTWAYGMKAFYGYRNFTLEDAGGSTLAYANSVWVLVDTRTGRPVKVPQEFADTYGLEPQLEMECAKRKLHIPDDMEKKGEIEVPQFFIDSNHHMNNEKYVMLAQQLLPNDFEISELRVEYRKEAKLGDTVISYVKYTSKSVTVVLADTDKKPYSVVEFLSKPVPGK | showed activity toward heptanedioyl-ACP methyl ester | –
5 | SEQ ID NO: 77: Spirochaeta smaragdinae thioesterase (protein, listed as Sediminispirochaeta smaragdinae, Sediminispirochaeta smaragdinae (strain DSM 11293 / JCM 15392 / SEBR 4228), Spirochaeta smaragdinae thioesterase) MKQVSRYTTEHTVMYSETDARGVLSLPSFFALFQEAALLHAEELGFGETYSKQENLMWVLSRLLLEIDAFPKHRDRIRLSTWPKQPQGPFAIRDYILESEEGTVCARATSSWLLLKLDTMRPIRPQTIFANLSMEGIGLAVEGTAPKISEIDNDSKQEMEVTARYSDLDQNNHVNNTRYVRWFLDCYTPEEITTSGNLHFAINYLQAASYSDKLLLRRYDTESDSSVYGYLEDGTPSFSARIERKSD | showed activity toward heptanedioyl-ACP methyl ester | –
6 | SEQ ID NO: 122: Mesorhizobium sp. LC103 aminotransferase (protein, Mesorhizobium sp. LC103, Mesorhizobium sp; LC103 aminotransferase) MLDKPPLSNLQARDVASVLHPYTPLHKLETMGPLVIERGEGVYVYDTQGKAYIEGMSGLWCAGLGFGDEEMIDAATEQLRTLPYYHLFGAKGTESAIELAEKLKEIAPVPISKVFFTSSGSEANDTQVKLAWYLNNALGRPNKKKIISRQKAYHGVTIMSASLTGLPYNHIGWDLPVDRVLHTDCPHYYRFGQEGESEAEFVNRMVKSLRDLIEREGPDTIAAMIAEPVMGAGGVIVPPEGYYPAIQAVLDEHDIIMISDEVINGFGRTGNWWGSQTLGMTPKTISAAKQMTSAYAPLGAVMVPEDIYQAYVSHSEKIGTFGHGFTYGGHPLGCALGVKAIEIYQKRDILGHVRSLSPQFERRMRKLTEHPLVGEARYCGLVGGVEIVADKKTKRPFDPKVGVGPQCAKFVEERGAILRAIGDTIALCPPMIIKEDELDELFDRLEKALDDTEAWVAKEGLRAL | – | 7-aminoheptanoate yield compared to the positive control (F2XBU9) [2]: higher 7-aminoheptanoate yields
7 | SEQ ID NO: 74: Cellulosilyticum lentocellum thioesterase (protein, listed as Cellulosilyticum lentocellum, Cellulosilyticum lentocellum (strain ATCC 49066 / DSM 5427 / NCIMB 11756 / RHM5), Cellulosilyticum lentocellum thioesterase) MSRLKENYQVDFDVVDFTGKLSINGLCSYMQTVAAKHATKLGINFYKNGEKPTYYWILSRVKYEIDTYPRWEDLVSLETYPGGYEKLFAVRLFDLTDEKGELIGRITGDYLLMDAEKGRPVRIKGATGPLSVLDFPYEGRKIDKIEVPEVVLREQIRKAYYSELDLNGHMNNAHYIRWTVDMLPLEVLKENEIVSLQINYNASITYGVETKLIIGKNEAGNYLVAGNSLDDSVNYFTSEIILRKNK | showed activity toward heptanedioyl-ACP methyl ester | impact on monomethyl heptanedioate production [1]: promising
8 | SEQ ID NO: 78: Opitutus terrae thioesterase (protein, Opitutus terrae (strain DSM 11246 / JCM 15787 / PB90-1), Opitutus terrae thioesterase) MPEKLTLNASVLYADVDRTEVLLLRGVFKFLQEAAITHANQFDLGSRAMATRGESWVLNRMAVAVHRYPRYEETMRIETWSRGIKGFKGYREFRVFDAQGAPLFSGSSLWLYVNMRTKSIIRVPAELAAEFPKRDDGAFFPELESLEFAPPAADARRVPIAIRYSDVDVNAHVNNTAYLDFLQEALARAGLSPRPQSIRIKYARAIPAEAETVRVAIEPRGTGAAFAIEDHDTIFAIGEVD | showed activity toward heptanedioyl-ACP methyl ester | –
9 | SEQ ID NO: 80: Clostridium sp. CAG:306 thioesterase (protein, Clostridium sp. CAG:306, Clostridium sp; CAG:306 thioesterase) MLFTKEYEIKYYEQNVNGDLKESALLNFLQDIATLSAESLGFGPSFVFANNYAWVVLKYHIELFAPLRNLSSIVIKTEPRGIAKLYAYRDFELYTKDGQCIGKAVSTWVLIDICTRKLLNTQKILADFMAPYQKRETDLVYEKIDSPDELMYQEVFDVRFDDIDVNRHANNSNYIVWALETLPVDFRLKHSPKTIDIKYKKEIGINSRVLSEAQQILTDGNVQTLHVIKDEQNAQDLTSLKIVWQ | showed activity toward heptanedioyl-ACP methyl ester | –
10 | FatB2: plant thioesterase FatB2 from Cuphea hookeriana, fatty acid acyl-ACP thioesterase, positive control (protein, listed as Cuphea hookeriana) MVAAAASSAFFPVPAPGASPKPGKFGNWPSSLSPSFKPKSIPNGGFQVKANDSAHPKANGSAVSLKSGSLNTQEDTSSSPPPRTFLHQLPDWSRLLTAITTVFVKSKRPDMHDRKSKRPDMLVDSFGLESTVQDGLVFRQSFSIRSYEIGTDRTASIETLMNHLQETSLNHCKSTGILLDGFGRTLEMCKRDLIWVVIKMQIKVNRYPAWGDTVEINTRFSRLGKIGMGRDWLISDCNTGEILVRATSAYAMMNQKTRRLSKLPYEVHQEIVPLFVDSPVIEDSDLKVHKFKVKTGDSIQKGLTPGWNDLDVNQHVSNVKYIGWILESMPTEVLETQELCSLALEYRRECGRDSVLESVTAMDPSKVGVRSQYQHLLRLEDGTAIVNGATEWRPKNAGANGAISTGKTSNGNSVS | – | monomethyl heptanedioate production higher than the negative control [1]: about 10 mg/L; monomethyl heptanedioate production [1]: approximately 14 mg/L
11 | SEQ ID NO: 72: Terrisporobacter othiniensis thioesterase (protein, listed as Terrisporobacter othiniensis) MERVFTKEYEVTYRDTDARGECFLTSYMNFMADCGLSQDEKYGFVIADMVKENHTWMLVDYEITIYKYVKYKEKLRAITYIEGMNKFYAVRYFKIYNDKDDLILEGKTLVILVDSKKRRPLSIPDEHYKAYGVEEKTPTIGRNKLKLSKCKNVDYKKEFNVRYSDIDLNLHVGNVTYLGWILETIPFEIMTDYKIYSVKIKYQKELTYGDKVSVKTEMEYNDNNISAYHEIINESEEVVALLETHWNEI | showed activity toward heptanedioyl-ACP methyl ester | impact on monomethyl heptanedioate production [1]: promising; monomethyl heptanedioate production [1]: 48 mg/L
12 | SEQ ID NO: 58: Spongiibacter sp. IMCC21906 thioesterase (protein, Spongiibacter sp. IMCC21906, Spongiibacter sp; IMCC21906 thioesterase) MTHFIQFLPGRISPRRALALLLVLLLQGALPRIVLADTILLLGDSLSAAYKIPVESSWPALLQDSIDEEHSLKNASVSGETTAGGLARLPALLAKNNTDILIIELGGNDGLRGYPLVRIRENIEKMIKLGQKKGAKVVLLGMHIPPNYGRRYADGFHNIYLSLAEENNTALLPFLLDGVAKQPRLMQGDGIHPTAEAQPIILQNVLSVLRPLLDSTN | showed activity toward heptanedioyl-ACP methyl ester | –
